The target in this experiment is T1, mouse ACKR2 N-terminally fused with the NanoLuc (mouse, UniProt O08707 1-378).
T1 construct: atypical chemokine receptor 2 (ACKR2), mouse; also called mACKR2; NanoLuc-ACKR2; source: HEK293T, stably expressing (pIRES-puromycin vector), on cells; not shown: NanoLuc, N-terminal, kept
T1 sequence (looked up): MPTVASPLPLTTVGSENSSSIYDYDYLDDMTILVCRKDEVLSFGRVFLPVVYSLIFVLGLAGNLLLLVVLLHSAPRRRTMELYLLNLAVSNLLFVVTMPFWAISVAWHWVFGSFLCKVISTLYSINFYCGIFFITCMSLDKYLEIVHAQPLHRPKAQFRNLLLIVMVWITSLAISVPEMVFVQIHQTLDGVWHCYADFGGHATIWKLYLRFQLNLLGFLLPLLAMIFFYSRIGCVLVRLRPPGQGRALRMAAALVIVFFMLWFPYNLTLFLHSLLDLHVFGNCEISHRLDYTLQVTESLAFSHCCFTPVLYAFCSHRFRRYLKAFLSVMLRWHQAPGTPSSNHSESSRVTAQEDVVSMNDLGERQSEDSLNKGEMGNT
Put plainly: FRET or BRET; NanoBRET competition binding, concentration-response: increasing chemokine (highest 300 nM) against LIH222-AZ594 (5 nM for human, 10 nM for mouse) on HEK293T cells expressing NanoLuc-ACKR2; 2 h on ice. Particulars: one partner purified. (In general: In BRET a luciferase serves as donor, and the signal depends on an acceptor being close.)

B1: mouse CXCL5 (ligand)
chain: APSSVIAATELRCVCLTVTPKINPKLIANLEVIPAGPQCPTVEVIAKLKNQKEVCLDPEAPVIKKIIQKILGSDKKKAKRNALAVERTASVQ
modifications: The paper prints no limits. The full-length mature chain after the signal peptide was taken for the 'native' chemokine (Protein Foundry); the commercial form could instead be GCP-2(1-78), 41-118, or …
One may read the pIC50 as −log10 of the IC50, conventionally taken in molar units. A lower pIC50 goes with a large IC50. In turn, B1 returned a pIC50 of at most 8.51.

B2: mouse CXCL10 (ligand, UniProt P17515 22-98, looked up)
chain: IPLARTVRCNCIHIDDGPVRMRAIGKLEIIPASLSCPRVEIIATMKKNDEQRCLNPESKTIKNLMKAFSQKRSKRAP
notes: CXCL10, mouse, native chemokine; source: bought: Protein Foundry
Take B2: the pIC50 was at most 8.01.

B3: mouse CXCL11 (ligand, UniProt Q9JHH5 22-100, looked up)
chain: FLMFKQGRCLCIGPGMKAVKMAEIEKASVIYPSNGCDKVEVIVTMKAHKRQRCLDPRSKQARLIMQAIEKKNFLRRQNM
notes: CXCL11, mouse, native chemokine; source: bought: Protein Foundry
B3 gave a pIC50 of at most 7.04.

Values taken from article PMC12017343, “Extended repertoire of CXC chemokines acting as agonists and antagonists of the human and murine atypical chemokine receptor ACKR2” (Journal of Leukocyte Biology, 2025).
